{"source": "patent US20250171549A1", "about": "(Amgen, published 2025)", "binders": {"B1": {"name": "Antibody 1 IgG2 (antibody)", "heavy": "EVQLVESGGGLVKPGGSLRLSCAASGFTFSNARMGWVRQAPGKGLEWVGRIKSKTEGGTRDYAAPVKGRFTISRDDSKNTLYLQMNSLKTEDTAVYYCTSYSGVWGQGTMVTVSSASTKGPSVFPLAPCSRSTSESTAALGCLVKDYFPEPVTVSWNSGALTSGVHTFPAVLQSSGLYSLSSVVTVPSSNFGTQTYTCNVDHKPSNTKVDKTVERKCCVECPPCPAPPVAGPSVFLFPPKPKDTLMISRTPEVTCVVVDVSHEDPEVQFNWYVDGVEVHNAKTKPREEQFNSTFRVVSVLTVVHQDWLNGKEYKCKVSNKGLPAPIEKTISKTKGQPREPQVYTLPPSREEMTKNQVSLTCLVKGFYPSDIAVEWESNGQPENNYKTTPPMLDSDGSFFLYSKLTVDKSRWQQGNVFSCSVMHEALHNHYTQKSLSLSPGK", "light": "not shown", "notes": "IgG2; tested as hybridoma supernatant"}}, "biological_target": "T1, cynomolgus monkey CCR8 (comprising threonine at position four) (cynomolgus monkey, UniProt O97665 1-356 (rhesus entry))", "T1 construct": "also called Cyno CCR8; cynomolgus CCR8", "T1 sequence (O97665 other isoform, or with tags, fused parts or gaps)": "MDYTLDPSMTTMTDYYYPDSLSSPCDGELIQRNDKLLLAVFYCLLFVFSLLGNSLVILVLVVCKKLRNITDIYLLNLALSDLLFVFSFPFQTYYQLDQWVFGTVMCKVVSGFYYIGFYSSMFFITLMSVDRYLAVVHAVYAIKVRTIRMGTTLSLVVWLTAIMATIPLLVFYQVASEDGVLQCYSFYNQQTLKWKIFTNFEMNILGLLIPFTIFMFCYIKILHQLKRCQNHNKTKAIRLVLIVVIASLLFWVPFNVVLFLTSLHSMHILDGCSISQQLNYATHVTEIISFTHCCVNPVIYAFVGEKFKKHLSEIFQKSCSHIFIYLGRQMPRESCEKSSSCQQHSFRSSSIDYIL", "experiment": "KinExA, 293T cells expressing cynomolgus CCR8", "method": "For each equilibrium set, reference point controls included a sample with cell media only and a sample without cells. The equilibrium sets were incubated for 24 hours at room temperature, with shaking. After 24 hours of incubation, the supernatants were separated from the cell pellets via centrifugation at 500×g for five minutes. The supernatants of both high [Ab] and low [Ab] equilibrium sets were then run through a KinExA 3200 machine.\nEach equilibrium sample set was read in duplicate on the KinExA machine. For low [Ab] equilibrium samples, 6.8 mL and 4.6 mL of each sample were run in duplicate, respectively, for human and cyno CCR8 equilibrium experiments. For high [Ab] equilibrium samples 16 μL and 75 μL of each sample were run in duplicate, respectively for human and cyno CCR8 equilibrium experiments.\nFor each equilibrium sample the free [Ab] was detected by running the equilibrium samples through the coated beads followed by a quick wash with the running buffer (1×PBS pH7.4+1% BSA+0.05% Sodium Azide). The secondary detection antibody (goat anti-huIgG (H+L) Alexa 647) was run through the flow cell at 680 ng/ml and 500 μL per run. The KinExA voltage output signal was used in KinExA software to calculate the Kd. […]", "data": [{"binder": "B1", "values": [{"measurement": "Kd", "result": 229, "unit": "pM"}]}]}
